Experiment [1] deals with h-PVRIG-mIgG2a Fc (mouse IgG2a Fc-tagged human PVRIG recombinant protein) (human; mouse) (UniProt Q6DKI7). Briefly: blocking ELISA (method of Example 2-3), human PVRL2 as the ligand that is blocked.
Experiment [2] addresses h-PVRIG-his (his-tagged human PVRIG recombinant protein) (human) (UniProt Q6DKI7). Briefly: ELISA, human PVRIG recombinant protein.
The target of experiment [3] is h-PVRIG-mIgG2a Fc (mouse IgG2a Fc-tagged human PVRIG recombinant protein) (human; mouse) (UniProt Q6DKI7). Briefly: competition ELISA, coated h-PVRIG-mIgG2a Fc, his-tagged PVRL2 as the ligand that is blocked.
Experiment [4] concerns the target h-PVRIG-his (his-tagged human PVRIG recombinant protein) (human) (UniProt Q6DKI7). Briefly: Fortebio BLI, antibody on Protein A sensor, his-tagged human PVRIG 64-4 nM, 1:1 fit.
Experiment [5] has the same target. Nature of the experiment: ELISA, plate coated with PVRIG-his.

Chain of h-PVRIG-his (his-tagged human PVRIG recombinant protein) (human) (Q6DKI7 41-171 limits assumed): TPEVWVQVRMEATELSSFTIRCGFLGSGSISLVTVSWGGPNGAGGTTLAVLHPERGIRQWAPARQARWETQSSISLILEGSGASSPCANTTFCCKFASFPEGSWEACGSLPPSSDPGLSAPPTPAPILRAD
Chain of h-PVRIG-mIgG2a Fc (mouse IgG2a Fc-tagged human PVRIG recombinant protein) (human; mouse) (Q6DKI7 41-171 limits assumed): as above

B1: Tab5 (antibody, from another filing, V domains shown)
VH: EVQLVESGGGVVKPGGSLRLSCAASGFTFGTSSMNWVRQAPGKGLEWVAVISFDGTEIHYADSVKGRFTISRDNSKSTVFLQMNSLRPDDTALYYCAKGSGNIYFYSGMDVWGQGTTVTVSS
VL: DIQMTQSPSTLSASVGDRVTITCRAGQSISGWLAWFQQKPGKAPNLLIYETSTLESGVPSRFSGSGSGTEYTLTISSLQPDDFATYYCQQYYSYPLTFGQGTKVEIKR
Turning to B1, the IC50 in experiment [1] stood at 0.964 nM; in experiment [3], 1.16 nM. Further, the results for the EC50 in experiment [2] and in experiment [5] were 1.41 nM and 2.86 nM, respectively. In experiment [4], the Kd is 0.219 nM. In addition, the koff in experiment [4] came out at 1.61e-05 s⁻¹. Besides, in experiment [4], the kon turned out to be 737000 M⁻¹ s⁻¹.
